46 substances from the supplement of paper PMC10598134 can be followed below.

± gives the standard deviation.

The series can be described thus: collision cross section of modified peptide (TIMS, N2, iRT-aligned); higher = larger / more extended gas-phase ion. A digest of the protocol: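 Synthetic peptide pools (~100 fmol/µL in 2% acetonitrile/0.1% formic acid, iRT standard spiked 1:40) were separated on a 120-min nanoflow C18 gradient at 60 °C. They were analysed on a timsTOF Pro/HT (dda-PASEF, nitrogen, ~2.4 mbar) and identified with MaxQuant. 1/K0 was calibrated with three reference ions and aligned run-wise to the median iRT peptide deviation. Collision cross section came from the Mason-Schamp equation, averaging 1–3 technical replicates of the most abundant feature per charge state.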

[1] abbreviates: charge state: 2, modification: Trimethyl (K).
Where [2] appears, read: charge state: 3, modification: Trimethyl (K).
Setting [3] is: charge state: 2, modification: Glutarylation.
Setting [4] is: charge state: 3, modification: Glutarylation.
Where [5] appears, read: charge state: 2, modification: Methyl (K).
Setting [6] is: charge state: 3, modification: Methyl (K).
Setting [7] is: charge state: 2, modification: Propionyl.
The mark [8] stands for this setting: charge state: 2, modification: Succinyl.
Setting [9] is: charge state: 2, modification: Nitro (Y).
The mark [10] stands for this setting: charge state: 3, modification: Nitro (Y).
The mark [11] stands for this setting: charge state: 2, modification: hydroxyisobutyryl.
Setting [12] is: charge state: 2, modification: Butyryl.
Where [13] appears, read: charge state: 3, modification: Butyryl.
Where [14] appears, read: charge state: 3, modification: Dimethyl (K).
Where [15] appears, read: charge state: 2, modification: Acetyl (K).
Where [16] appears, read: charge state: 3, modification: GlyGly (K).
Where [17] appears, read: charge state: 3, modification: Methyl (R).
Where [18] appears, read: charge state: 2, modification: Phospho (Y).
[19] abbreviates: charge state: 3, modification: Phospho (Y).
The mark [20] stands for this setting: charge state: 2, modification: Dimethyl (K).
Setting [21] is: charge state: 3, modification: hydroxyisobutyryl.

“VLTANSNPSSPSAAKR [_VLTANSNPSSPSAAK(Trimethyl (K))R_]” returned a collision cross section under setting [1] of 445.51 ± 0.016 Å² and a collision cross section under setting [2] of 518.89 ± 1.6 Å².
For “LEEVTGKLQVAR [_LEEVTGK(Trimethyl (K))LQVAR_]”, in that order: 402.01 ± 1.1 Å² and 471.9 ± 1.5 Å².
As for “VQGGALEDSQLVAGVAFKK [_VQGGALEDSQLVAGVAFK(Gluratylation)K_]”, the collision cross section is 484.97 ± 2 Å² under setting [3] and 564.26 Å² under setting [4].
With “GTISAPGKVVTAAAQAK [_GTISAPGK(Gluratylation)VVTAAAQAK_]”, the collision cross section runs as follows: under setting [3], 445.81 ± 0.95 Å²; under setting [4], 526.52 ± 1.1 Å².
“TVSKVDDFLANEAK [_TVSK(Methyl (K))VDDFLANEAK_]”: the collision cross section was 413.26 ± 1.6 Å² under setting [5] and 471.08 ± 3.6 Å² under setting [6].
With PSVSTKLISK [_PSVSTK(Propionyl)LISK_], the collision cross section under setting [7] amounted to 354.68 ± 0.33 Å².
With “TQAYQDQKPGTSGLR [_TQAYQDQK(Trimethyl (K))PGTSGLR_]”, the collision cross section under setting [2] amounted to 476 ± 1.5 Å².
As for “GEVGAGAGPGAQAGPSAKR [_GEVGAGAGPGAQAGPSAK(Succinyl)R_]”, the collision cross section is 417.99 ± 0.36 Å² under setting [8] and 474.67 ± 1.5 Å² (charge state: 3, modification: Succinyl).
For the substance AYDATHLVK [_AY(Nitro (Y))DATHLVK_], the collision cross section is 358.23 ± 0.55 Å² under setting [9] and 417.35 Å² under setting [10].
In the case of “SGKFTQQDIDEAK [_SGK(hydroxyisobutyryl)FTQQDIDEAK_]”, the collision cross section under setting [11] is on record as 423.01 ± 2.3 Å².
Take “TTGFYSGFSEVAEKR [_TTGFYSGFSEVAEK(Gluratylation)R_]”: the collision cross section under setting [3] was 443.45 ± 0.95 Å² and the collision cross section under setting [4] was 517.64 Å².
Consider SLKLNTAEDAK [_SLK(Methyl (K))LNTAEDAK_], for which the collision cross section by setting is: under setting [5], 364.71 ± 0.36 Å²; under setting [6], 470.64 ± 4.7 Å².
As to “GTITVSAQELKDNR [_GTITVSAQELK(Butyryl)DNR_]”, the collision cross section is, setting by setting: under setting [12], 422.6 ± 0.77 Å²; under setting [13], 481.65 ± 2.9 Å².
In the case of “VDIDVPDVNIEGPDAKLK [_VDIDVPDVNIEGPDAK(Dimethyl (K))LK_]”, under setting [14], the collision cross section is on record as 550.04 ± 1.1 Å².
Regarding “TGGTQTDLFTCGKCK [_TGGTQTDLFTCGK(Succinyl)CK_]”, the collision cross section under setting [8] was 437.09 Å².
Take “IPQEKCILQTDVK [_IPQEK(hydroxyisobutyryl)CILQTDVK_]”: the collision cross section under setting [11] is on record as 438.91 ± 0.79 Å².
For the substance ISALQGKLSK [_ISALQGK(Acetyl (K))LSK_], the collision cross section is, setting by setting: under setting [15], 353.22 ± 0.93 Å²; (charge state: 3, modification: Acetyl (K)) 432.36 Å².
The substance LLEQKTQESQK [_LLEQK(GlyGly (K))TQESQK_] had a collision cross section (charge state: 2, modification: GlyGly (K)) of 410.36 ± 1.9 Å² and a collision cross section under setting [16] of 452.18 ± 1.1 Å².
“GTGRGGGGGGGGGAPR [_GTGR(Citrullination (R))GGGGGGGGGAPR_]” had a collision cross section (charge state: 2, modification: Citrullination (R)) of 349.34 ± 0.64 Å².
As for “IVEKYGYTHLSAGELLR [_IVEK(GlyGly (K))YGYTHLSAGELLR_]”, the collision cross section under setting [16] stood at 548.84 ± 0.37 Å².
With “AGPNASIISLKSDK [_AGPNASIISLK(Methyl (K))SDK_]”, the collision cross section by setting is: under setting [5], 413.97 ± 1.5 Å²; under setting [6], 479.63 ± 3.4 Å².
Regarding “GRGVGSPEPGPTAPYLGR [_GR(Methyl (R))GVGSPEPGPTAPYLGR_]”, the collision cross section under setting [17] is 520.34 ± 0.91 Å².
Under setting [18], DYILEGEPGK [_DY(Phospho (Y))ILEGEPGK_] gave a collision cross section of 357.17 ± 0.065 Å².
The substance IYHPNVDK [_IY(Phospho (Y))HPNVDK_] showed a collision cross section under setting [18] of 353.97 ± 0.065 Å² and a collision cross section under setting [19] of 437.48 Å².
Under setting [15], “SKLLFSNTAAQK [_SK(Acetyl (K))LLFSNTAAQK_]” gave a collision cross section of 396.66 ± 1.3 Å².
Take “LQDVSGQLSSSKK [_LQDVSGQLSSSK(Dimethyl (K))K_]”: the collision cross section reads like this: under setting [20], 407.51 ± 1.1 Å²; under setting [14], 466.01 ± 2.4 Å².
As for YRGDYDR [_YR(Methyl (R))GDYDR_], the collision cross section was 328.99 ± 0.25 Å² (charge state: 2, modification: Methyl (R)) and 408.46 ± 0.36 Å² under setting [17].
Under setting [8], GAEKTEVAEPR [_GAEK(Succinyl)TEVAEPR_] gave a collision cross section of 372.49 ± 0.4 Å².
VVDLLAPYAK [_VVDLLAPY(Phospho (Y))AK_] gave a collision cross section under setting [18] of 379.49 ± 0.074 Å².
“HHAAYVNNLNVTEEK [_HHAAY(Nitro (Y))VNNLNVTEEK_]”: the collision cross section is reported as 438.46 Å² under setting [9] and 499.02 ± 3.6 Å² under setting [10].
LELAQYR [_LELAQY(Phospho (Y))R_] had a collision cross section under setting [18] of 329.12 ± 0.75 Å².
For “VSPASSVDSNIPSSQGYKK [_VSPASSVDSNIPSSQGYK(Methyl (K))K_]”, the collision cross section came to 486.85 ± 1.2 Å² under setting [5] and 544.11 ± 0.42 Å² under setting [6].
Take FHYQDQEFLK [_FHY(Phospho (Y))QDQEFLK_]: the collision cross section reads like this: under setting [18], 397.81 ± 0.64 Å²; under setting [19], 447.23 ± 0.12 Å².
With “DVNAAIAAIKTK [_DVNAAIAAIK(hydroxyisobutyryl)TK_]”, the collision cross section reads like this: under setting [11], 392.68 ± 15 Å²; under setting [21], 466.43 ± 5.5 Å².
Consider “GGPGSTLSFVGKR [_GGPGSTLSFVGK(Gluratylation)R_]”, for which the collision cross section is, setting by setting: under setting [3], 392.32 ± 0.52 Å²; under setting [4], 441.96 ± 5.9 Å².
As to “VLDSGAPIKIPVGPETLGR [_VLDSGAPIK(Dimethyl (K))IPVGPETLGR_]”, the collision cross section under setting [14] is recorded as 506.24 ± 0.56 Å².
Consider “PSVGSQSNQAGQGKR [_PSVGSQSNQAGQGK(hydroxyisobutyryl)R_]”, for which the collision cross section is, setting by setting: under setting [11], 418.62 ± 0.53 Å²; under setting [21], 477.11 ± 9.7 Å².
Consider “SITHSTVGSKGEK [_SITHSTVGSK(Trimethyl (K))GEK_]”, for which the collision cross section is, setting by setting: under setting [1], 408.54 ± 2.1 Å²; under setting [2], 473.59 ± 1.5 Å².
For the substance “LQDVSGQLSSSKK [_LQDVSGQLSSSK(Propionyl)K_]”, the collision cross section by setting is: under setting [7], 399.52 ± 0.65 Å²; (charge state: 3, modification: Propionyl) 471.63 Å².
Regarding VDATADYICK [_VDATADY(Phospho (Y))ICK_], under setting [18], the collision cross section is reported as 366.93 ± 0.064 Å².
Turning to “SDSGKPYYYNSQTK [_SDSGK(Acetyl (K))PYYYNSQTK_]”, the collision cross section under setting [15] is recorded as 419.63 ± 2 Å².
On to “IINEPTAAAIAYGLDKK [_IINEPTAAAIAYGLDK(Butyryl)K_]”, for which the collision cross section runs as follows: under setting [12], 465.29 ± 0.5 Å²; under setting [13], 559.62 ± 0.45 Å².
“PANEKATDDYHYEK [_PANEK(Methyl (K))ATDDYHYEK_]”: the collision cross section under setting [6] turned out to be 492.44 ± 0.72 Å².
Turning to “FDDTNPEKEEAK [_FDDTNPEK(hydroxyisobutyryl)EEAK_]”, the collision cross section came out at 401.52 ± 0.54 Å² under setting [11] and 443.87 ± 2.2 Å² under setting [21].
Consider “SYGIPYIETSAK [_SY(Nitro (Y))GIPYIETSAK_]”, for which, under setting [9], the collision cross section was 386.26 ± 0.17 Å².
Take “VGTASVLQPVKK [_VGTASVLQPVK(Dimethyl (K))K_]”: the collision cross section by setting is: under setting [20], 391.72 ± 3 Å²; under setting [14], 440.56 ± 1.6 Å².
